Results published in patent publication CN114028562A.

Biological target: 天然TSLP
Experiment: cell-based or functional assay

IC50, inhibition of natural TSLP-induced STAT5 phosphorylation in SW756-STAT5-Luciferase reporter cells: 1.45 ng/mL
Substance: Tezepelumab (antibody)
